Target: T1, Biotinylated human β-glucocerebrosidase (residues 40A-536R) (human)
T1 sequence (P04062 whole entry, looked up): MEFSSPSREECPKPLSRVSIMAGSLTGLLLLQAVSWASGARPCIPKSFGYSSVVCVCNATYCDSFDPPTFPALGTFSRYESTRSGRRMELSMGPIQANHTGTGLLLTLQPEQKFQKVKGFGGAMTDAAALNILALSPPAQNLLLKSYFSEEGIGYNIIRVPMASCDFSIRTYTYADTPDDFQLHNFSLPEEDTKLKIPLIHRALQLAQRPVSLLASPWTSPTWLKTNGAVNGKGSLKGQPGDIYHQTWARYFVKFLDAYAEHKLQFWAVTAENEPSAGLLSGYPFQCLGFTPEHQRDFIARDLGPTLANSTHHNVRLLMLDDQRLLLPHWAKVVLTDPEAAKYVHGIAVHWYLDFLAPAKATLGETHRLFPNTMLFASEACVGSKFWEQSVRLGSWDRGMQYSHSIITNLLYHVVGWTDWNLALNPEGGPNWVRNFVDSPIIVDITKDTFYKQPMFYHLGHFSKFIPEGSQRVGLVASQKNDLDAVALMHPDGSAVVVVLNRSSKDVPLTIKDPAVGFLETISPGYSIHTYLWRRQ
Test: SPR; equilibrium binding; about 1,000 RU of biotinylated ligand on a streptavidin-coupled CM5 chip, LIMP-2 as analyte; Biacore T100, 25 °C, 10 mM HEPES pH 7.5, 150 mM NaCl, 0.005% Tween 20; one-site saturation binding model

B1: Human LIMP-2 luminal domain (residues 28-431) produced from HEK293S (GnTI-) cells, with limited glycosylation (domain or fragment)
chain: VFQKAVDQSIEKKIVLRNGTEAFDSWEKPPLPVYTQFYFFNVTNPEEILRGETPRVEEVGPYTYRELRNKANIQFGDNGTTISAVSNKAYVFERDQSVGDPKIDLIRTLNIPVLTVIEWSQVHFLREIIEAMLKAYQQKLFVTHTVDELLWGYKDEILSLIHVFRPDISPYFGLFYEKNGTNDGDYVFLTGEDSYLNFTKIVEWNGKTSLDWWITDKCNMINGTDGDSFHPLITKDEVLYVFPSDFCRSVYITFSDYESVQGLPAFRYKVPAEILANTSDNAGFCIPEGNCLGSGVLNVSICKNGAPIIMSFPHFYQADERFVSAIEGMHPNQEDHETFVDINPLTGIILKAAKRFQINIYVKKLDDFVETGDIRTMVFPVMYLNESVHIDKETASRLKSMINT
modifications: N-linked P-Man9GlcNAc2 (with terminal mannose 6-phosphate) at N325; sugars on all nine N-linked glycosylation sites, limited processing
Kd: 1.4 µM

— publication PMC4104448
